# Experimental data taken from patent publication US20110223615A1.
# Legend:
# Experiment in all cases: cell-based or functional assay
# [1] = target: SF162 (envelope of the HIV-1 pseudovirus) (HIV-1)
# [2] = target: JRFL (envelope of the HIV-1 pseudovirus) (HIV-1)
# [3] = target: SVPB12 (envelope of the HIV-1 pseudovirus) (HIV-1)
# [4] = target: SVPB16 (envelope of the HIV-1 pseudovirus) (HIV-1)
# [5] = target: SVPB5 (envelope of the HIV-1 pseudovirus) (HIV-1)
# [6] = target: SVPB14 (envelope of the HIV-1 pseudovirus) (HIV-1)
# [7] = target: HIV2 (envelope of the indicator virus, without sCD4) (HIV-2)
# [8] = target: BaL.01 (envelope of the HIV-1 pseudovirus) (HIV-1)
# [9] = target: ADA (envelope of the HIV-1 pseudovirus) (HIV-1)
# [10] = target: MuLV (envelope of the control pseudovirus) (MuLV)
# [11] = target: SVPB17 (envelope of the HIV-1 pseudovirus) (HIV-1)
substance,measurement,setting,value
CD4bs mAb b12 (antibody),IC50 (ug/ml) neutralization,[1],< 0.1 µg/mL
same,IC50 (ug/ml) neutralization,[2],< 0.1 µg/mL
same,IC50 (ug/ml) neutralization,[3],> 30 µg/mL
same,IC50 (ug/ml) neutralization,[4],12 µg/mL
same,IC50 (ug/ml) neutralization,[5],18 µg/mL
same,IC50 (ug/ml) neutralization,[6],0.3 µg/mL
same,IC50 (ug/ml) neutralization,[7],> 30 µg/mL
same,IC50 (ug/ml) neutralization,[8],0.2 µg/mL
same,IC50 (ug/ml) neutralization,[9],1.2 µg/mL
same,IC50 (ug/ml) neutralization,[10],> 30 µg/mL
same,IC50 (ug/ml) neutralization,[11],> 30 µg/mL
E51 (antibody),IC50 (ug/ml) neutralization,[1],45 µg/mL
same,IC50 (ug/ml) neutralization,[2],> 30 µg/mL
same,IC50 (ug/ml) neutralization,[3],> 30 µg/mL
same,IC50 (ug/ml) neutralization,[4],> 30 µg/mL
same,IC50 (ug/ml) neutralization,[5],> 30 µg/mL
same,IC50 (ug/ml) neutralization,[6],> 30 µg/mL
same,IC50 (ug/ml) neutralization,[7],> 30 µg/mL
same,IC50 (ug/ml) neutralization,[8],> 30 µg/mL
same,IC50 (ug/ml) neutralization,[9],> 30 µg/mL
same,IC50 (ug/ml) neutralization,[10],> 30 µg/mL
same,IC50 (ug/ml) neutralization,[11],> 30 µg/mL
HIV-1 CD4i mAb 17b (antibody),IC50 (ug/ml) neutralization,[1],30 µg/mL
same,IC50 (ug/ml) neutralization,[2],> 30 µg/mL
same,IC50 (ug/ml) neutralization,[3],> 30 µg/mL
same,IC50 (ug/ml) neutralization,[4],> 30 µg/mL
same,IC50 (ug/ml) neutralization,[5],> 30 µg/mL
same,IC50 (ug/ml) neutralization,[6],> 30 µg/mL
same,IC50 (ug/ml) neutralization,[7],10 µg/mL
same,IC50 (ug/ml) neutralization,[8],> 30 µg/mL
same,IC50 (ug/ml) neutralization,[9],> 30 µg/mL
same,IC50 (ug/ml) neutralization,[10],> 30 µg/mL
same,IC50 (ug/ml) neutralization,[11],> 30 µg/mL
HIV-1 CD4i mAb 19e (antibody),IC50 (ug/ml) neutralization,[1],> 30 µg/mL
same,IC50 (ug/ml) neutralization,[2],> 30 µg/mL
same,IC50 (ug/ml) neutralization,[3],> 30 µg/mL
same,IC50 (ug/ml) neutralization,[4],> 30 µg/mL
same,IC50 (ug/ml) neutralization,[5],> 30 µg/mL
same,IC50 (ug/ml) neutralization,[6],> 30 µg/mL
same,IC50 (ug/ml) neutralization,[7],> 30 µg/mL
same,IC50 (ug/ml) neutralization,[8],> 30 µg/mL
same,IC50 (ug/ml) neutralization,[9],> 30 µg/mL
same,IC50 (ug/ml) neutralization,[10],> 30 µg/mL
same,IC50 (ug/ml) neutralization,[11],> 30 µg/mL
broadly neutralizing mAb 2G12 (antibody),IC50 (ug/ml) neutralization,[1],0.5 µg/mL
same,IC50 (ug/ml) neutralization,[2],0.3 µg/mL
same,IC50 (ug/ml) neutralization,[3],0.3 µg/mL
same,IC50 (ug/ml) neutralization,[4],> 25 µg/mL
same,IC50 (ug/ml) neutralization,[5],8 µg/mL
same,IC50 (ug/ml) neutralization,[6],> 25 µg/mL
same,IC50 (ug/ml) neutralization,[7],> 25 µg/mL
same,IC50 (ug/ml) neutralization,[8],1 µg/mL
same,IC50 (ug/ml) neutralization,[9],12 µg/mL
same,IC50 (ug/ml) neutralization,[10],> 25 µg/mL
same,IC50 (ug/ml) neutralization,[11],> 25 µg/mL
